{"source": "patent US20040175377A1", "about": "“Agent and method for reducing intraocular pressure” (priority 2000, published 2004)", "key": {"[1]": {"tested_on": "differentiated human TM (HTM) cell cultures", "experiment": "Differentiated HTM cell cultures incubated with recombinant protein; extracellular matrix and cell contacts by immunofluorescence, phase microscopy and western blot", "type": "cell-based", "conditions": "for disruption of cell contacts or matrix assembly: pentapeptides administered separately to HTM cell cultures", "method": "(§1) Differentiated human TM (HTM) cell cultures were incubated with a recombinant Hep II domain protein for eighteen hours. The effect on the extracellular matrix and cell contacts were observed using immunofluorescence microcopy, phase microscopy and western blot. Differentiated HTM cultures look like endothelial cells and form cell to cell junctions and closely resemble TM cells in vivo. Differentiated HTM cells also secrete matrix proteins such as fibronectin, type IV collagen and laminin. Non-differentiated cells lack these qualities and are less suitable for in vitro analysis methods. Cells were grown as described in Polansky J R, Weinreb R, Alvarado J A. Studies on human trabecular cells propagated in vitro. Vis Res 1981;21 :155-60 and Polansky J R, Weinreb R N, Baxter J D, Alvarado J. Human trabecular cells. I. Establishment in tissue culture and growth characteristics. Invest Ophthalmol Vis Sci 1979;18:1043-9, both incorporated by reference in their entirety.\nAfter incubation, the turnover of fibronectin fibrils, a good indicator of matrix formation, was studied. […] The Hep II protein was a GST protein. The GST portion was cleaved with thrombin as described by Bultmann, H., et al., Fibronectin Fibrilogenesis Involves the Heparin II Binding Domains of Fibronectin, J. Biol. Chem. 273:2601-2609 (1998).\nTo identify the active region of the Hep II domain, smaller fragments including either the Type III repeat 12, the Type III repeat 14, or the Type III repeats 13 and 14 were produced as recombinant GST proteins, as above."}, "[2]": {"tested_on": "vinculin", "experiment": "Tyrosine phosphorylation of vinculin after treatment", "type": "cell-based, human", "conditions": "after treatment of the eye with the Hep II domain", "method": "as §1\nFurther, a number of morphological changes also indicate disrupted cell contacts. […] Vinculin is a major structural protein that maintain cell-cell and cell-adhesion contracts. Changes in its phosphorylation state indicate that the treatment has biochemically affected the molecules that maintain cell-cell and cell-adhesion contracts. […]"}, "[3]": {"tested_on": "human trabecular meshwork organ culture (eye)", "experiment": "Human eye organ culture perfusion, paired control and test eyes, IOP", "method": "While this effect on matrix formation was relatively slow, the Hep II domain acts quickly in intact eyes to increase outflow facility. In human eye culture studies using pairs of control and test eyes, as described by Johnson, D H and Tschumper, R C. (1987) Human Trabecular Meshwork Organ Culture. IVOS 28:945-953, incorporated by reference, a baseline IOP was determined, pumps were turned off and the Hep II domain was injected at 13.8 μM into the anterior chamber of one eye. The pumps were kept off for four hours to allow the Hep II domain to mix with the contents of the anterior chamber. After four hours, the treated eyes were perfused with buffer containing the Hep II domain at 13.8 μM for twenty-four hours. Untreated eyes were perfused with buffer. […] After twenty-four hours, the pumps were turned off and the perfusate in both eyes was replaced with fresh buffer without the protein."}, "[4]": {"tested_on": "Schlemm's canal endothelium and extracellular matrix of the eye", "experiment": "Light and electron microscopy of fixed treated and untreated organ-cultured eyes", "parameters": "species or system human", "conditions": "fixed eyes after perfusion", "description": "The treated and untreated eyes were then fixed and prepared for both light and electron microscopy. […] Part of the inner side of the cannel was disrupted and small discontinuous cellular processes replaced a continuous cell layer found in a normal eye. […] These changes can account for the increased outflow in the presence of the Hep II domain since they would have created additional spaces or openings for fluid flow."}}, "data": [{"molecule": "IDAPS (listed as Homo sapiens)", "values": [{"measurement": "disruption of cell contacts or matrix assembly", "setting": "[1]", "value": "neither disrupted cell contacts or matrix assembly"}]}, {"molecule": "PRARI (listed as Homo sapiens)", "values": [{"measurement": "disruption of cell contacts or matrix assembly", "setting": "[1]", "value": "neither disrupted cell contacts or matrix assembly"}]}, {"molecule": "Hep II domain: recombinant 33 kilodalton Hep II domain of fibronectin containing type III repeats 12, 13 and 14 (SEQ ID NO:2) (protein, listed as Homo sapiens) IPAPTDLKFTQVTPTSLSAQWTPPNVQLTGYRVRVTPKEKTGPMKEINLAPDSSSVVVSGLMVATKYEVSVYALKDTLTSRPAQGVVTTLENVSPPRRARVTDATETTITISWRTKTETITGFQVDAVPANGQTPIQRTIKPDVRSYTITGLQPGTDYKIYLYTLNDNARSSPVVIDASTAIDAPSNLRFLATTPNSLLVSWQPPRARITGYIIKYEKPGSPPREVVPRPRPGVTEATITGLEPGTEYTIYVIALKNNQKSEPLIGRKKT", "values": [{"measurement": "level of fibronectin matrixes (turnover of fibronectin fibrils)", "setting": "[1]; HTM cell cultures, 4.6 μM, eighteen hours incubation", "value": "dramatic decrease"}, {"measurement": "morphological changes indicating disrupted cell contacts", "setting": "[1]; compared to untreated cultures", "value": "increase in the number of retraction fibers"}, {"measurement": "morphological changes at higher peptide concentrations", "setting": "[1]; higher peptide concentrations", "value": "retraction and rounding up of many cells"}, {"measurement": "tyrosine phosphorylation of vinculin", "setting": "[2]", "value": "significant increase"}, {"measurement": "decrease in IOP", "setting": "[3]; 13.8 μM injected into the anterior chamber, pumps off four hours, then perfusion at 13.8 μM for twenty-four hours, versus baseline", "value": 32, "unit": "%"}, {"measurement": "pressure in the treated eye after replacement of perfusate with buffer without the protein", "setting": "[3]; after twenty-four hours perfusion, absence of the Hep II domain", "value": "returned to the baseline level"}, {"measurement": "treated organ-cultured eyes with lower IOP after treatment", "setting": "[3]; plurality of assays, number of treated eyes", "value": "six of seven"}, {"measurement": "electron microscopy, endothelium in Schlemm's canal", "setting": "[4]", "value": "altered"}, {"measurement": "electron microscopy, extracellular matrix in the juxtacanalicular region", "setting": "[4]", "value": "altered and amorphous material appeared in the cribiform meshwork"}, {"measurement": "light microscopy, treated versus untreated eyes", "setting": "[4]", "value": "not distinguishable"}]}]}
